Measurements taken from publication PMC7269513 (Antimicrobial Agents and Chemotherapy, 2020).
Several values for one entry are separate records, joined by “and”; a condition that tells them apart may be missing. Equal values may be shown once.

Tested on: O=C(Cc1cccs1)N[C@@H]1C(=O)N2C(C(=O)O)=C(/C=C/c3ccc([N+](=O)[O-])cc3[N+](=O)[O-])CS[C@H]12
Assay: purified protein, by the assay type

Substance	Km	kcat	kcat/Km
(Acinetobacter baumannii)	62 µM and 28 µM and 34 µM	357 s⁻¹ and 208 s⁻¹ and 518 s⁻¹	5.8e+06 M⁻¹ s⁻¹ and 7.6e+06 M⁻¹ s⁻¹ and 1.5e+07 M⁻¹ s⁻¹
(Enterobacter cloacae)	100 µM	479 s⁻¹	4.8e+06 M⁻¹ s⁻¹
(Escherichia coli)	22 µM and 24 µM	334 s⁻¹ and 341 s⁻¹	1.5e+07 M⁻¹ s⁻¹
(Klebsiella pneumoniae)	29 µM	406 s⁻¹	1.4e+07 M⁻¹ s⁻¹
(Pseudomonas aeruginosa PAO1)	55 µM	133 s⁻¹	2.4e+06 M⁻¹ s⁻¹
(Serratia marcescens)	26 µM	229 s⁻¹	8.9e+06 M⁻¹ s⁻¹
